Bridge positions count the residues as written; N and C are the ends. Square brackets hold non-standard residues; d marks the D form. Ends that are not written are not given here. Peptide text beside a SMILES is read from it. S5 = C=CCCC[C@](C)(N)C(=O)O
How the values were obtained:
VLCAD [1] = molecular target: T1, VLCAD (Homo sapiens, UniProt P49748); test: Isothermal calorimetry (ITC); assay type: binding; details: 80 μM recombinant VLCAD, injection of 100 μM peptide, 25° C.
T1 construct: 10x His (N); made in house; host or cells: E. coli BL21(DE3), pET19b
T1 sequence (P49748 40-655): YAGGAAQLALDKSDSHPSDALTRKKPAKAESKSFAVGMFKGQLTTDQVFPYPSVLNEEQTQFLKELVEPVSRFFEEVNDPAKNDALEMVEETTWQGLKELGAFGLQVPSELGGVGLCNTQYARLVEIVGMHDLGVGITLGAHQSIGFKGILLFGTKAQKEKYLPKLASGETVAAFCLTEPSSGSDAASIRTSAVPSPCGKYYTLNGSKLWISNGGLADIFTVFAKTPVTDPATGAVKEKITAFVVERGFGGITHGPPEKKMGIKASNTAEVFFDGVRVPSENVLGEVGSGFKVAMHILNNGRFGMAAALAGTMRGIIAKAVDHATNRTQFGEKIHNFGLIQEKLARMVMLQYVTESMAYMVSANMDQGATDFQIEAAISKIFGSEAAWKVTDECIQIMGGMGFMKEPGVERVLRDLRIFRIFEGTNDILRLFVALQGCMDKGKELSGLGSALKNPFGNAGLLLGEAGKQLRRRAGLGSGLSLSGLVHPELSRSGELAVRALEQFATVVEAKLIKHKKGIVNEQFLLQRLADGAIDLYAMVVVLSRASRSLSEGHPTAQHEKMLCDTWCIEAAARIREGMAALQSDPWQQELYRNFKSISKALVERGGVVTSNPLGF
Source text: The alanine mutant peptide panel was then utilized in an isothermal calorimetry (ITC)-based enthalpy screen to assess the relative binding activities of the different peptides to recombinant VLCAD protein (FIG. 19A). Although some differences in binding hierarchy were observed between the pull down (native protein) and ITC (purified recombinant protein) methods, those peptides displaying the strongest and weakest binding activity for VLCAD were similar between the two analyses.
VLCAD. Mature human VLCAD lacking its cleavable leader sequence (aa 40-655) (NP_000009.1) was subcloned into the pET19b vector (Novagen) using NdeI and XhoI restriction sites. Correct insertion was confirmed by DNA sequencing. The 10× His-tagged VLCAD construct was expressed in BL21(DE3) E. coli, and once cells reached an OD of 0.8 after growing at 37° C., they were induced with 0.5 mM […] (IPTG) (Gold Biotechnology I2481C) at 37° C. for 4 hours. Bacterial pellets were resuspended in lysis buffer (500 mM NaCl, 50 mM HEPES, 5% glycerol, pH 7.5, complete protease inhibitor tablet) and lysed by microfluidization (M-110L; Microfluidics). Cell lysates were then cleared by centrifugation at 20,000 rpm for 45 min (Beckman Avanti J-E, rotor type JA-20). Cleared cellular lysates were then subjected to Ni-NTA (QIAGEN) affinity chromatography, followed by elution with 300 mM imidazole (Sigma 12399) and overnight dialysis at 4° C. Dialyzed VLCAD was then concentrated and subjected to size exclusion chromatography (GE Healthcare Life Sciences Superdex 200 10/300 GL) at 4° C. using 150 mM NaCl, 50 mM Tris, pH 8.0. Protein was used upon isolation and was stored at 4° C. for up to two weeks. Successful protein production was confirmed by SDS-PAGE, Western blot, intact MS, and enzymatic activity assay.
A peptide enthalpy screen was performed by adding 80 μM of recombinant VLCAD to the cell in analysis buffer (20 mM HEPES, pH 7.5, 150 mM NaCl, 1 mM TCEP, and 1% DMSO), followed by injection of 2.0 μL of 100 μM peptide by syringe, using an Affinity ITC (TA instruments) at 25° C. Injections were performed in technical triplicate for each peptide. […] Data were analyzed with the NanoAnalyze software package (TA instruments) using a single binding site model and thermodynamic parameters calculated as follows: ΔG=ΔH−TΔS=−RTlnKB, where ΔG, ΔH, and ΔS are the changes in free energy, enthalpy and entropy of binding, respectively.

VLCAD [2] = molecular target: T1, VLCAD; test: Biolayer interferometry; assay type: binding; details: Biotin-PEG peptide immobilized on streptavidin sensors
Method: To measure the direct binding interaction, ^19F NMR binding studies were conducted using fluorinated analogs of MCL-1 SAHBD. […] Both SAHBs, however, bind MCL-1ΔNΔC, as illustrated by a chemical shift of the peptide NMR peak in both cases (FIG. 15). […] To perform these experiments, N-terminal Btn-PEG analogs of the peptides were immobilized onto streptavidin probes that were then placed into protein solutions at a variety of concentrations to measure ligand-target association.
VLCAD. Mature human VLCAD lacking its cleavable leader sequence (aa 40-655) (NP_000009.1) was subcloned into the pET19b vector (Novagen) using NdeI and XhoI restriction sites. Correct insertion was confirmed by DNA sequencing. The 10× His-tagged VLCAD construct was expressed in BL21(DE3) E. coli, and once cells reached an OD of 0.8 after growing at 37° C., they were induced with 0.5 mM […] (IPTG) (Gold Biotechnology I2481C) at 37° C. for 4 hours. Bacterial pellets were resuspended in lysis buffer (500 mM NaCl, 50 mM HEPES, 5% glycerol, pH 7.5, complete protease inhibitor tablet) and lysed by microfluidization (M-110L; Microfluidics). […]
BLI binding measurements were performed using an Octet Red384 System (ForteBio). […] Binding parameters were calculated using the accompanying Octet Software version 9 (ForteBio).

MCL-1ΔNΔC = molecular target: T2, MCL-1ΔNΔC (Homo sapiens, UniProt Q07820); test: Biolayer interferometry; assay type: binding; details: Biotin-PEG peptide immobilized on streptavidin sensors
T2 construct: The MCL-1ΔNΔC construct was grown and expressed in E. coli as previously described; made in house; host or cells: E. coli BL21(DE3)
T2 sequence (Q07820 172-320 limits assumed, stated change not applied): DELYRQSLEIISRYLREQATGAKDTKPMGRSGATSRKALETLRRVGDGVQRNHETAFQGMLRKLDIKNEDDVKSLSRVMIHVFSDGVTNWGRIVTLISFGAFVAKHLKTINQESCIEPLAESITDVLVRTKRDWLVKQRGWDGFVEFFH

Mcl-1^F/F CreER^T2 cells = details: vehicle and tamoxifen exposed cells; except at the highest dose applied (100 μM)

Row | Molecule | relative binding activity for VLCAD (ITC enthalpy screen, consistent with pull down) (VLCAD [1]) | also measured
1 | F228A: biotinylated MCL-1 SAHBD alanine point mutant F228A (RKALETLRRVGDGV[S5]RNH[S5]TAA; staple 15-19; also: biotinylated, place not given here) | weak VLCAD association | 
2 | D218A: biotinylated MCL-1 SAHBD alanine point mutant D218A (RKALETLRRVGAGV[S5]RNH[S5]TAF; staple 15-19; also: biotinylated, place not given here) | robust binding | 
3 | MCL-1 SAHBD: hydrocarbon-stapled peptide mimicking the MCL-1 BH3 domain (Stabilized Alpha-Helix of BCL-2 Domain), SEQ ID NO:19 (RKALETLRRVGDGV[S5]RNH[S5]TAF; staple 15-19) |  | biolayer interferometry association with VLCAD (VLCAD [2]): engages VLCAD; biolayer interferometry association with MCL-1 (MCL-1ΔNΔC): bind to MCL-1; cytotoxicity (cell viability) (Mcl-1^F/F CreER^T2 cells): Essentially no cytotoxicity
4 | R214A: biotinylated MCL-1 SAHBD alanine point mutant R214A (RKALETLARVGDGV[S5]RNH[S5]TAF; staple 15-19; also: biotinylated, place not given here) | weak VLCAD association | 
5 | R207A: biotinylated MCL-1 SAHBD alanine point mutant R207A (AKALETLRRVGDGV[S5]RNH[S5]TAF; staple 15-19; also: biotinylated, place not given here) | weak VLCAD association | 

Second part, led by results:

Row | relative binding activity for VLCAD (ITC enthalpy screen, consistent with pull down) (VLCAD [1]) | Molecule | also measured
6 | weak VLCAD association | L213A: biotinylated MCL-1 SAHBD alanine point mutant L213A (RKALETARRVGDGV[S5]RNH[S5]TAF; staple 15-19; also: biotinylated, place not given here) | 
7 | weak VLCAD association | R215A: biotinylated MCL-1 SAHBD alanine point mutant R215A (RKALETLRAVGDGV[S5]RNH[S5]TAF; staple 15-19; also: biotinylated, place not given here) | 
8 | robust binding | CC(=O)N[C@@H](CCCNC(=N)N)C(=O)N[C@@H](CCCCN)C(=O)N[C@@H](C)C(=O)N[C@@H](CC(C)C)C(=O)N[C@@H](CCC(=O)O)C(=O)N[C@H](C(=O)N[C@@H](CC(C)C)C(=O)N[C@@H](CCCNC(=N)N)C(=O)N[C@@H](CCCNC(=N)N)C(=O)N[C@H](C(=O)NCC(=O)N[C@@H](CC(=O)O)C(=O)NCC(=O)N[C@@H](C)C(=O)N[C@@]1(C)CCCC=CCCC[C@@](C)(C(=O)N[C@H](C(=O)N[C@@H](C)C(=O)N[C@@H](Cc2ccccc2)C(N)=O)[C@@H](C)O)NC(=O)[C@H](Cc2c[nH]cn2)NC(=O)[C@H](CC(N)=O)NC(=O)[C@H](CCCNC(=N)N)NC1=O)C(C)C)[C@@H](C)O [V220A] (Ac-RKALETLRRVGDGA[S5]RNH[S5]TAF-NH2; staple 15-19; N-terminus and C-terminus assumed) | relative binding activity for VLCAD (ITC enthalpy screen, consistent with pull down) (VLCAD [1]; listed as MCL-1 SAHBD V220A): strongest binder

— patent publication US12366576B2, “Compositions, assays, and methods for direct modulation of fatty acid metabolism” (Dana-Farber Cancer Institute, Inc., priority 2016, dated 2025)
